Where “and” joins values, the source holds several entries; their conditions need not be identical. Identical values can stand only once. Like-named read-outs stand apart in the source and are kept apart here.
Experiments:
Assay in all cases: SPR
[1] = target: Human angiostatin kringles 1–5 (K1–5) (human)
[2] = target: Human angiostatin kringles 1–5 (K1–5) (human); remark: listed apart in the source
[3] = target: Recombinant yeast F1-ATPase (F1-ATP synthase protein complex) (yeast) (UniProt P07251)
[4] = target: Recombinant yeast F1-ATPase (F1-ATP synthase protein complex) (yeast) (UniProt P07251); remark: listed apart in the source

Recombinant yeast F1-ATPase (F1-ATP synthase protein complex) (from UniProt P07251 36-545; P00830 34-511; P38077 34-311)
Ka [1]: 6.5e+06 M⁻¹ and 5.1e+06 M⁻¹ | Kd [1]: 154 nM and 137 nM and 195 nM | koff [1]: 0.0002 s⁻¹ and 0.00019 s⁻¹ | kon [1]: 1300 M⁻¹ s⁻¹ and 960 M⁻¹ s⁻¹ | Kd [2]: 130 to 237 nM

B1: Pigment epithelium-derived factor (PEDF), human recombinant (ligand)
chain: QNPASPPEEGSPDPDSTGALVEEEDPFFKVPVNKLAAAVSNFGYDLYRVRSSTSPTTNVLLSPLSVATALSALSLGAEQRTESIIHRALYYDLISSPDIHGTYKELLDTVTAPQKNLKSASRIVFEKKLRIKSSFVAPLEKSYGTRPRVLTGNPRLDLQEINNWVQAQMKGKLARSTKEIPDEISILLLGVAHFKGQWVTKFDSRKTSLEDFYLDEERTVRVPMMSDPKAVLRYGLDSDLSCKIAQLPLTGSMSIIFFLPLKVTQNLTLIEESLTSEFIHDIDRELKTVQAVLTVPKLKLSYEGEVTKSLQEMKLQSLFDSPDFSKITGKPIKLTQVEHRAGFEWNEDGAGTTPSPGLQPAHLTFPLDYHLNQPFIFVLRDTDTGALLFIGKILDPRGP
IC50 [3]: 17.3 nM | IC50 [4]: 11.8 nM

Reference: publication PMC2929661
